# Article PMC5605622, “Agdc1p – a Gallic Acid Decarboxylase Involved in the Degradation of Tannic Acid in the Yeast Blastobotrys (Arxula) adeninivorans” (Frontiers in Microbiology, 2017)
# B1: Agdc1-6hp (Agdc1p, gallic acid decarboxylase) (Blastobotrys adeninivorans) (protein)
# chain: MTTSYEPWPQLYSHLNGTNEEVLDRMKVAELCKGWSVYRDASEWANFKEMFTPDANIWTTWSGAQTIDSFIQISKDGKDKGAFIMHRECGTLVDLNPKTQRAIGKMKTTITQRFEYEGVPFDIDCDNYFIFFCLKDSNGDWKARWYKVFYVKDKFVPVGVPTAENMEKLAKLFSKENLEQYPWGYQYLAVAQANLGYPIDKKLPTWKNELYHTMYDAMKEWMEGKEIDLHW
# notes: full-length ORF (696 bp, 232 residues as printed), C-terminal 6xHis tag kept, expressed in A. adeninivorans G1212, IMAC purified
# Key:
# purified protein [1] = substrate: O=C(O)c1ccc(O)c(O)c1; test: purified protein; assay type: biochemical, Blastobotrys adeninivorans; details: 50 mM potassium phosphate pH 6.2, 40 °C
# purified protein [2] = substrate: O=C(O)c1cc(O)c(O)c(O)c1; test: purified protein; assay type: biochemical, Blastobotrys adeninivorans; details: 50 mM potassium phosphate pH 6.2, 40 °C
protein,measurement,setting,value
B1,Km,purified protein [1],3200 ± 200 µM
same,kcat,purified protein [1],44.0 ± 3.4 s⁻¹
same,Km,purified protein [2],700 ± 200 µM
same,kcat,purified protein [2],42.0 ± 8.2 s⁻¹
